We go through six substances from paper PMC4344526.

By Kd is commonly meant the equilibrium constant for the complex coming apart.

Series [1] concerns Csy complex (Csy1-4 + crRNA, Type I-F) (Pseudomonas aeruginosa PA14). The series is described as follows: EMSA. As to conditions: EMSA: 20 mM HEPES pH 7.5, 100 mM KCl, 5% glycerol, 1 mM TCEP, 2 mM EDTA, 37 C, 15 min (competition 5 min), SPR: 20 mM HEPES pH 7.5, 100 mM KCl, 0.02%.
Series [2] has the same test system. The series is described as follows: SPR. As to conditions: ka 1.9e7 M-1 s-1, half-life 6.3 s, same as non-target, EMSA Kd >2 orders higher, EMSA: 20 mM HEPES pH 7.5, 100 mM KCl, 5% glycerol, 1 mM TCEP, 2 mM EDTA, 37 C, 15 min (competition 5 min), SPR: 20 mM HEPES pH 7.5, 100 mM KCl, 0.02%. For orientation: In EMSA bound probe runs differently from free probe, usually more slowly.

As to “dsDNA target, T-A/T-A PAM, duplexed (EMSA)”, the binding signal (fold weaker vs N1) in series [1] amounted to 100.
Take dsDNA target, 7-deazaguanine PAM: in series [1] (both PAM guanines replaced by 7-deazaguanine), the binding signal (fold increase in Kd vs N1) was determined as 120.
With ssDNA target, protospacer + GG PAM, the Kd in series [1] was determined as 0.5 nM.
As for dsDNA target, inosine PAM, the binding signal (fold increase in Kd vs N1) in series [1] (both PAM guanines replaced by inosine) is greater than 1000.
dsDNA target, protospacer + G-C/G-C PAM: the Kd in series [1] was found to be 1 nM.
With “dsDNA target, protospacer + T-A/T-A PAM (SPR)”, the Kd in series [2] amounted to 6 nM.
